Measurements reported in publication PMC10681739, “High-throughput data and modeling reveal insights into the mechanisms of cooperative DNA-binding by transcription factor proteins”.

B1: Table S2 C row 136 (dsDNA)
DNA 1: CAAATGAGGTGCCAAGCCACAAAAAGCATTTGCGTC
DNA 2: GACGCAAATGCTTTTTGTGGCTTGGCACCTCATTTG
B2: Table S2 C row 88 (dsDNA)
DNA 1: TGAGGCTCAGTGCTGACCACATTCAAATGACTAGAC
DNA 2: GTCTAGTCATTTGAATGTGGTCAGCACTGAGCCTCA
B3: Table S2 C row 37 (dsDNA)
DNA 1: CTGGTGCAGAAAAAAACCACACAAGCCATTGGGTAG
DNA 2: CTACCCAATGGCTTGTGTGGTTTTTTTCTGCACCAG
B4: Table S2 C row 55 (dsDNA)
DNA 1: CTGACATTTAAGCTCACCACATGTGGGATAGTTAGT
DNA 2: ACTAACTATCCCACATGTGGTGAGCTTAAATGTCAG
B5: Table S2 C row 14 (dsDNA)
DNA 1: CTTGCCTAAGACATGCCCACAGCTGCACAGATAAGA
DNA 2: TCTTATCTGTGCAGCTGTGGGCATGTCTTAGGCAAG
B6: Table S2 C row 57 (dsDNA)
DNA 1: CACAGAACTGACCAGACCACATGGAGGCCAATCAAA
DNA 2: TTTGATTGGCCTCCATGTGGTCTGGTCAGTTCTGTG
B7: Table S2 C row 114 (dsDNA)
DNA 1: CTCTTCCATGCAGGCTGTGGTTGCCTTCAAATACCG
DNA 2: CGGTATTTGAAGGCAACCACAGCCTGCATGGAAGAG
B8: Table S2 C row 79 (dsDNA)
DNA 1: CCCATCAGCAGAAAAACCACAGCAAGCTTAATGTGC
DNA 2: GCACATTAAGCTTGCTGTGGTTTTTCTGCTGATGGG
B9: Table S2 C row 59 (dsDNA)
DNA 1: CAGACAGTAACAAATGGTGGTTGCCGTCATGTGAAG
DNA 2: CTTCACATGACGGCAACCACCATTTGTTACTGTCTG
B10: Table S2 C row 156 (dsDNA)
DNA 1: AGGTGTGCTCTCCACCGCGGTTCACAAGGTGTCTGC
DNA 2: GCAGACACCTTGTGAACCGCGGTGGAGAGCACACCT
B11: Table S2 C row 87 (dsDNA)
DNA 1: GAATGTCTTTAAAAAACCACAGAATTGGGCTGGGCG
DNA 2: CGCCCAGCCCAATTCTGTGGTTTTTTAAAGACATTC
B12: Table S2 B row 2515 (dsDNA)
DNA 1: CGGTGGCTTCCGGCCCATGGCGCTGGTTGGTGACTC
DNA 2: GAGTCACCAACCAGCGCCATGGGCCGGAAGCCACCG
B13: Table S2 C row 110 (dsDNA)
DNA 1: GGATTCAACATTCCTTGTGGGCTGCTGGCCCCAGAC
DNA 2: GTCTGGGGCCAGCAGCCCACAAGGAATGTTGAATCC
B14: Table S2 C row 21 (dsDNA)
DNA 1: TTGCAGAGTTAGCTAGCCACAGGCAAGTCTCCATTG
DNA 2: CAATGGAGACTTGCCTGTGGCTAGCTAACTCTGCAA
B15: Table S2 B row 2766 (dsDNA)
DNA 1: TTTGCAAATCCAGAGCGGAGACTTCCGGTGGCCTAG
DNA 2: CTAGGCCACCGGAAGTCTCCGCTCTGGATTTGCAAA
B16: Table S2 C row 40 (dsDNA)
DNA 1: CTTCACGGCTAGTTCTGTGGGTGTCCCACTTAGTTT
DNA 2: AAACTAAGTGGGACACCCACAGAACTAGCCGTGAAG
B17: Table S2 C row 75 (dsDNA)
DNA 1: AGCTCTGAGAATCATTGTGGCCACACTGTCATGGTC
DNA 2: GACCATGACAGTGTGGCCACAATGATTCTCAGAGCT
B18: Table S2 B row 672 (dsDNA)
DNA 1: GGCTTCCGGCGGGGTACCCTCCTCTGTAGGCGGGGC
DNA 2: GCCCCGCCTACAGAGGAGGGTACCCCGCCGGAAGCC
B19: Table S2 C row 5 (dsDNA)
DNA 1: TAGTGTGAATCCCCGCCCACAGAGGGGCGGCACGTT
DNA 2: AACGTGCCGCCCCTCTGTGGGCGGGGATTCACACTA
B20: Table S2 C row 158 (dsDNA)
DNA 1: AGGTATTAAACAGCAACCGCATTGCCAAGCACTGTG
DNA 2: CACAGTGCTTGGCAATGCGGTTGCTGTTTAATACCT
B21: Table S2 C row 86 (dsDNA)
DNA 1: CGTCACTTCTGGAGCTGCGGTCGGGATCTGGGAGGA
DNA 2: TCCTCCCAGATCCCGACCGCAGCTCCAGAAGTGACG
B22: Table S2 C row 191 (dsDNA)
DNA 1: CCAAAAAGAGAGGCAGCCACAAGATCTTCTAAAAGG
DNA 2: CCTTTTAGAAGATCTTGTGGCTGCCTCTCTTTTTGG
B23: Table S2 C row 24 (dsDNA)
DNA 1: GACGGGCGCGCGGCTTGCGGGCGGCGGGGCGCTGGG
DNA 2: CCCAGCGCCCCGCCGCCCGCAAGCCGCGCGCCCGTC
B24: Table S2 C row 74 (dsDNA)
DNA 1: GTTAAAACAAAGCAAGCCACAGTGTGTGTCCACAGA
DNA 2: TCTGTGGACACACACTGTGGCTTGCTTTGTTTTAAC
B25: Table S2 C row 43 (dsDNA)
DNA 1: GGCTTTCCAAGCTAGTGTGGTCCACTTGCTCCCTCA
DNA 2: TGAGGGAGCAAGTGGACCACACTAGCTTGGAAAGCC
B26: Table S2 C row 178 (dsDNA)
DNA 1: GGCTGACTCTGTATCTGTGGGTGCTTCAGGGCCAAC
DNA 2: GTTGGCCCTGAAGCACCCACAGATACAGAGTCAGCC
B27: Table S2 C row 124 (dsDNA)
DNA 1: CGCAGCTCCCCACTGTGCGGTTATCTAGGCCAGCAC
DNA 2: GTGCTGGCCTAGATAACCGCACAGTGGGGAGCTGCG
B28: Table S2 C row 83 (dsDNA)
DNA 1: AGAACTTAAGATCTCTGTGGCTTGTGTGTGTGTGTA
DNA 2: TACACACACACACAAGCCACAGAGATCTTAAGTTCT
B29: Table S2 C row 102 (dsDNA)
DNA 1: GGTCAGGAGGGATGAACCACCGCTTACTCGTTCTTC
DNA 2: GAAGAACGAGTAAGCGGTGGTTCATCCCTCCTGACC
B30: Table S2 C row 171 (dsDNA)
DNA 1: GACTGGTGGATCACTTGAGGTCAGTTTGAGACCAGC
DNA 2: GCTGGTCTCAAACTGACCTCAAGTGATCCACCAGTC
B31: Table S2 C row 115 (dsDNA)
DNA 1: TGGGGCTTCTCGTTGGCCACAAGTTCAATTTGAGCC
DNA 2: GGCTCAAATTGAACTTGTGGCCAACGAGAAGCCCCA
B32: Table S2 C row 129 (dsDNA)
DNA 1: GCAGCTGTAGAGGCCTGAGGTTTACCTAATCTGCTA
DNA 2: TAGCAGATTAGGTAAACCTCAGGCCTCTACAGCTGC
B33: Table S2 C row 71 (dsDNA)
DNA 1: CTGGGTTGGATGACCTGCGGTGGAACAGATGGCTCC
DNA 2: GGAGCCATCTGTTCCACCGCAGGTCATCCAACCCAG
B34: Table S2 C row 149 (dsDNA)
DNA 1: TTGGCTTCGGTTCTAACCTCAGAGACTTCTCTAAAT
DNA 2: ATTTAGAGAAGTCTCTGAGGTTAGAACCGAAGCCAA
B35: Table S2 C row 6 (dsDNA)
DNA 1: TAAGCCCCGCGTGCCTGTGGGTATTTGAAAGCTGAA
DNA 2: TTCAGCTTTCAAATACCCACAGGCACGCGGGGCTTA
B36: Table S2 C row 18 (dsDNA)
DNA 1: ACCCTCGAAGCTCTAACCACTGTGGGCTATTTTTGC
DNA 2: GCAAAAATAGCCCACAGTGGTTAGAGCTTCGAGGGT
B37: Table S2 C row 190 (dsDNA)
DNA 1: TAAGAGAAAGCGCAAACCGCACAAGACCAGTTCAAA
DNA 2: TTTGAACTGGTCTTGTGCGGTTTGCGCTTTCTCTTA
B38: Table S2 B row 3812 (dsDNA)
DNA 1: GAGTCGCTTCCGCTCCCGCCCCGCTCTCTGGCGTAG
DNA 2: CTACGCCAGAGAGCGGGGCGGGAGCGGAAGCGACTC
B39: Table S2 C row 20 (dsDNA)
DNA 1: TCTCCTCTGAGGGCCTGTGGGCAATGAGCAGAAAAG
DNA 2: CTTTTCTGCTCATTGCCCACAGGCCCTCAGAGGAGA
B40: Table S2 C row 56 (dsDNA)
DNA 1: TGTCTATCGATTAAAACCACTGGTAAGAGCCATTGA
DNA 2: TCAATGGCTCTTACCAGTGGTTTTAATCGATAGACA
B41: Table S2 C row 70 (dsDNA)
DNA 1: AAAGTCATTTAAGTGACCACACTTTATAGGCTTGCC
DNA 2: GGCAAGCCTATAAAGTGTGGTCACTTAAATGACTTT
B42: Table S2 C row 65 (dsDNA)
DNA 1: GTCAGCTATAGTGACACCACAAGGCCTGAAGAGGGC
DNA 2: GCCCTCTTCAGGCCTTGTGGTGTCACTATAGCTGAC

Target: T1, ETS1 (Homo sapiens, UniProt P14921)
T1 sequence: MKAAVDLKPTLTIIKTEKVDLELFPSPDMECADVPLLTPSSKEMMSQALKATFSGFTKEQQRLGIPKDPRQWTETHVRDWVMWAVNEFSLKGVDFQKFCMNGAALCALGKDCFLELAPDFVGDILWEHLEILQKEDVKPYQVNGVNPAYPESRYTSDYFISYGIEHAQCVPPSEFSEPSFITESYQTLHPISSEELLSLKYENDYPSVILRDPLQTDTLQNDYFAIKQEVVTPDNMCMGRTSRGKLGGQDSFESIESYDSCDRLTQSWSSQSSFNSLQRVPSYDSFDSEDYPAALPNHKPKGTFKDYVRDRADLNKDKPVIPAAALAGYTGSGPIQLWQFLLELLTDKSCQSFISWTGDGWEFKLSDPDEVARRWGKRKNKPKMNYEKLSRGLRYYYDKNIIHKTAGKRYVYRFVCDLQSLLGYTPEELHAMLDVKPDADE
Assay: gcPBM; 1 nM ETS1
Settings: tags: N-terminal GST (pDEST15), kept (PMC6008103); label: surface-attached array probe

Binder | binding signal
B1 | 388 PBM fluorescence, median of replicate spots
B2 | 389 PBM fluorescence, median of replicate spots
B3 | 369 PBM fluorescence, median of replicate spots
B4 | 379 PBM fluorescence, median of replicate spots
B5 | 383 PBM fluorescence, median of replicate spots
B6 | 379 PBM fluorescence, median of replicate spots
B7 | 357 PBM fluorescence, median of replicate spots
B8 | 369 PBM fluorescence, median of replicate spots
B9 | 367 PBM fluorescence, median of replicate spots
B10 | 376 PBM fluorescence, median of replicate spots
B11 | 379 PBM fluorescence, median of replicate spots
B12 | 14700 PBM fluorescence, median of replicate spots
B13 | 359 PBM fluorescence, median of replicate spots
B14 | 364 PBM fluorescence, median of replicate spots
B15 | 14400 PBM fluorescence, median of replicate spots
B16 | 366 PBM fluorescence, median of replicate spots
B17 | 376 PBM fluorescence, median of replicate spots
B18 | 13700 PBM fluorescence, median of replicate spots
B19 | 372 PBM fluorescence, median of replicate spots
B20 | 391 PBM fluorescence, median of replicate spots
B21 | 360 PBM fluorescence, median of replicate spots

Binder | binding signal
B22 | 380 PBM fluorescence, median of replicate spots
B23 | 371 PBM fluorescence, median of replicate spots
B24 | 382 PBM fluorescence, median of replicate spots
B25 | 378 PBM fluorescence, median of replicate spots
B26 | 371 PBM fluorescence, median of replicate spots
B27 | 376 PBM fluorescence, median of replicate spots
B28 | 361 PBM fluorescence, median of replicate spots
B29 | 362 PBM fluorescence, median of replicate spots
B30 | 359 PBM fluorescence, median of replicate spots
B31 | 381 PBM fluorescence, median of replicate spots
B32 | 377 PBM fluorescence, median of replicate spots
B33 | 374 PBM fluorescence, median of replicate spots
B34 | 389 PBM fluorescence, median of replicate spots
B35 | 385 PBM fluorescence, median of replicate spots
B36 | 356 PBM fluorescence, median of replicate spots
B37 | 359 PBM fluorescence, median of replicate spots
B38 | 15300 PBM fluorescence, median of replicate spots
B39 | 389 PBM fluorescence, median of replicate spots
B40 | 359 PBM fluorescence, median of replicate spots
B41 | 361 PBM fluorescence, median of replicate spots
B42 | 370 PBM fluorescence, median of replicate spots
